Measured values published in patent publication US20110124071A1, “METHODS AND COMPOSITIONS FOR PRODUCING HYDROCARBONS” (priority 2009, published 2011).

Legend:
E. coli MG1655 = test: Coexpression of putative decarbonylase with S. elongatus PCC7942 orf1594 in E. coli, GC-MS of extracts; type: cell-based; conditions: coexpressed with S. elongatus PCC7942 orf1594 in E. coli MG1655, M9 minimal media
Experimental: After a 1 μl splitless injection (inlet temperature held at 300° C.) onto the GC/MS column, the oven was held at 100° C. for 3 mins. The temperature was ramped up to 320° C. at a rate of 20° C./min. The oven was held at 320° C. for an additional 5 min. The flow rate of the carrier gas helium was 1.3 ml/min. The MS quadrapole scanned from 50 to 550 m/z. Retention times and fragmentation patterns of product peaks were compared with authentic references to confirm peak identity.
The genomic DNA encoding Synechococcus elongatus PCC7942 orf1594 (YP—400611; putative aldehyde-generating enzyme) (SEQ ID NO: 65) was amplified and cloned into the NcoI and EcoRI sites of vector OP-80 (pCL1920 derivative) under the control of the Ptrc promoter. The resulting construct (“OP80-PCC7942—1594”) was transformed into E. coli MG1655 and the cells were grown at 37° C. in M9 minimal media with 1% (w/v) glucose as carbon source and supplemented with 100 μg/ml spectinomycin. When the culture reached OD600 of 0.8-1.0, it was induced with 1 mM IPTG and cells were grown for an additional 18-20 h at 37° C. Cells from 0.5 ml of culture were extracted with 0.5 ml of ethyl acetate. After sonication for 60 min, the sample was centrifuged at 15,000 rpm for 5 min. The solvent layer was analyzed by GC-MS as described in Example 1.
The genomic DNA encoding Synechococcus elongatus PCC7942 orf1593 (YP—400610; putative decarbonylase) (SEQ ID NO: 1) was amplified and cloned into the NdeI and XhoI sites of vector OP-183 (pACYC derivative) under the control of the Ptrc promoter. The resulting construct was cotransformed with OP80-PCC7942—1594 into E. coli MG1655 and the cells were grown at 37° C. in M9 minimal media supplemented with 100 μg/ml spectinomycin and 100 μg/ml carbenicillin. The cells were cultured and extracted as in Example 3 and analyzed by GC-MS as described in Example 1. […]

[1] = In vitro decarbonylation enzyme assay with purified Npun02004178 protein, GC/MS; type: biochemical; conditions: 30 μM protein, 200 μM octadecanal, spinach ferredoxin, ferredoxin reductase, 1 mM NADPH, 37° C., 2 h
Experimental: The genomic DNA encoding N. punctiforme PCC73102 Npun02004178 (SEQ ID NO: 5) was cloned into the NdeI and XhoI sites of vector pET-15b under the control of the T7 promoter. The resulting Npun02004178 protein contained an N-terminal His-tag. An E. coli BL21 strain (DE3) (Invitrogen) was transformed with the plasmid by routine chemical transformation techniques. Protein expression was carried out by first inoculating a colony of the E. coli strain in 5 ml of LB media supplemented with 100 mg/L of carbenicillin and shaken overnight at 37° C. to produce a starter culture. This starter cultures was used to inoculate 0.5 L of LB media supplemented with 100 mg/L of carbenecillin. […] Protein concentration was determined using the Bradford assay (Biorad). […]
To test Npun02004178 protein for decarbonylation activity, the following enzyme assays were set-up. […] Samples were analyzed by GC/MS using the following parameters: run time: 13.13 min; column: HP-5-MS Part No. 19091S-433E (length of 30 meters; I.D.: 0.25 mm narrowbore; film: 0.25ìM); inject: 1ìl Agilent 6850 inlet; inlet: 300 C splitless; carrier gas: helium; flow: 1.3 ml/min; oven temp: 75° C. hold 5 min, 320 at 40° C./min, 320 hold 2 min; det: Agilent 5975B VL MSD; det. temp: 330° C.; scan: 50-550 M/Z. Heptadecane from Sigma was used as an authentic reference for determining compound retention time and fragmentation pattern.

[2] = test system: E. coli MG1655 ΔfadD lacZ::Ptrc-′tesA; test: Heterologous expression in a fatty aldehyde-producing E. coli strain with MSMEG—5739, GC-MS; type: cell-based; conditions: decarbonylase coexpressed with carboxylic acid reductase MSMEG—5739

B1: Npun02004178: Nostoc punctiforme PCC73102 putative decarbonylase (SEQ ID NO: 5) (protein)
chain: MQQLTDQSKELDFKSETYKDAYSRINAIVIEGEQEAHENYITLAQLLPESHDELIRLSKMESRHKKGFEACGRNLAVTPDLQFAKEFFSGLHQNFQTAAAEGKVVTCLLIQSLIIECFAIAAYNIYIPVADDFARKITEGVVKEEYSHLNFGEVWLKEHFAESKAELELANRQNLPIVWKMLNQVEGDAHTMAMEKDALVEDFMIQYGEALSNIGFSTRDIMRLSAYGLIGA
modifications: Nostoc punctiforme
Q: Which “fatty aldehyde decarbonylase activity (alkane/alkene production)” value (E. coli MG1655) does the source give for B1 here?
A: Its value is “active fatty aldehyde decarbonylase”.

Q: And the “in-vitro conversion of octadecanal to heptadecane” value [1]?
A: Its value is “in-vitro conversion of octadecanal to heptadecane was observed”.

Q: What about the “conversion of fatty aldehydes provided by MSMEG—5739 to alkanes” value [2] of the same molecule?
A: Its value is “produced tridecane, pentadecene and pentadecane”.
